In publication PMC5913134, “The IL-33-PIN1-IRAK-M axis is critical for type 2 immunity in IL-33-induced allergic airway inflammation” (Nature Communications, 2018):

Tests used:
PIN1-IRAK-M interaction = experiment: GST-PIN1 pulldown of IRAK-M from DC2.4 cell extracts; assay type: cell-based, C57BL/6; settings: 100 ng/ml, 1 h, DC2.4 extracts
Protocol: Fig. 2 IL-33 induces IRAK-M phosphorylation and binding to PIN1. a GST PIN1 pulldown assay with DC2.4 cell extracts either non-treated or treated with IL-33 (100 ng/ml) or LPS (100ng/ml) for 1 h. […] The cells were washed with fresh medium and treated with 100 ng/ml IL-33 for the indicated times prior to IRAK-M immunoprecipitation. d DC2.4 cells stably expressing IRAK-M were treated with IL-33 and at the indicated time points were subjected to CO-IP using anti-PIN1 antibody and blotted for IRAK-M. e HEK293 cells were transfected with different IRAK-M constructs expressing the N’ terminal domain (aa1-220), the middle portion of the protein (aa220-440) or the C’ terminal domain (aa 440-630), and then treated with IL-33, followed by CO-IP for PIN1. f DC2.4 cells stably expressing IRAK-M were treated with IL-33 and subjected to GST or GST-PIN1 pull-down.
Glutathione-Sepharose 4B (Amersham) coupled with glutathione S-transferase (GST) or GST-PIN1 and washed with 150 mM NaCl, 20 mM Tris-HCl (pH 8), 1 mM MgCl2, and 0.1% NP-40 was mixed with 1 mg of total protein extract for 3 h at 4 °C. The beads were then washed extensively, and the protein was eluted with 20 mM reduced glutathione. The proteins were resolved by SDS-PAGE and visualized by Western analysis or autoradiography. […]

[1] = system: Il6, Csf3, Cxcl2 and Ccl5 expression in DC2.4 cells; experiment: qRT-PCR of Il6, Csf3, Cxcl2 and Ccl5 in DC2.4 cells; assay type: cell-based, C57BL/6; settings: IL-33, pLKO control DC2.4 cells
Protocol: Also as indicated, some cells were pretreated for 3 days with 5 μM or 10 μM of ATRA before IL-33 induction. e Relative gene expression of Il6, Csf3, Cxcl2 and Ccl5 in the different samples as in d normalized to actin. f IRAK-M was stably expressed in pLKO or TET on shPin1 expressing cells, followed by induction with IL-33, before western blot to examine protein expression of IRAK-M, PIN1 and tubulin as well as g qRT-PCR to determine the relative gene expression for Il6, Csf3, Cxcl2 and Ccl5 in the different samples.
SYBR Green PCR Master Mix (Applied Biosystems, Foster City, CA) was used for two-step real-time RT-PCR analysis on an Applied Biosystems StepOnePlus Real Time PCR instrument. […] Expression value of the targeted gene in a given sample was normalized to the corresponding expression of Actin. The 2^–ΔΔCt method was used to calculate relative expression of the targeted genes.

[2] = system: mouse embryonic fibroblasts (MEFs); experiment: IL-6 secretion by MEFs; assay type: cell-based; settings: PIN1 KO MEFs, all IL-33 concentrations tested, 24 h
Protocol: Fig. 1 PIN1 is required for IL-33 to induces TH2 polarization and allergic inflammation. a 5 and15 min after IL-33 treatment of DC2.4 cells, cells were extracted and PIN1 activity was measured as previously described. Inset: PIN1 was immune precipitated and immune blotted for PIN1 or Ser71 phosphorylation as indicated. b WT and PIN1 KO MEF’s were treated with different concentrations of IL-33 for 24 h and the medium was measured for IL-6 secretion. c WT and PIN1 KO mice were treated with 200 ng/mice/day for 4 consecutive days and the BALF was examined for IL-4, 5, 6 and 13 by ELISA. d H&E staining representative of lungs from WT and PIN1 KO mice treated with IL-33 (n = 4). Scale bar = 50 µm. e Total cell number in the BALF of WT and PIN1 KO mice was measured using HEMAVET multispecies hematology analyzer. f Eosinophil cell number in the BALF of WT and PIN1 KO mice was measured using HEMAVET multispecies hematology analyzer. g Representative H&E staining of lung sections from WT and PIN1 KO mice after OVA-induced allergic asthma (n = 4). Scale bar = 50 µm. h IL-4, -5, -13 and IL-33 levels in the BALF of WT and PIN1 KO mice after OVA-induced allergic asthma. […] The data were analyzed by a Student’s two-tailed t test unless stated otherwise, and the values are reported as mean ± standard errors of the means (SEM). *- statistical significance (P < 0.05), **- significance (P < 0.01)

B1: IL-33: Recombinant mouse IL-33 purchased from BioLegend (protein, UniProt Q8BVZ5 1-266, looked up)
Interleukin-33: MRPRMKYSNSKISPAKFSSTAGEALVPPCKIRRSQQKTKEFCHVYCMRLRSGLTIRKETSYFRKEPTKRYSLKSGTKHEENFSAYPRDSRKRSLLGSIQAFAASVDTLSIQGTSLLTQSPASLSTYNDQSVSFVLENGCYVINVDDSGKDQEQDQVLLRYYESPCPASQSGDGVDGKKLMVNMSPIKDTDIWLHANDKDYSVELQRGDVSPPEQAFFVLHKKSSDFVSFECKNLPGTYIGVKDNQLALVEEKDESCNNIMFKLSKI
Q: Which PIN1-IRAK-M interaction (PIN1-IRAK-M interaction) does the source give for B1 here?
A: specific interaction

Q: And the “expression of the four target genes” value [1]?
A: upregulated

Q: What about the “IL-6 secretion in response to IL-33” value [2] of the same molecule?
A: abolished IL-6 secretion
